Assay results as given in US20260250328A1 (published 2026).

Experiments:
Experiment in all cases: SPR
P2-4G = molecular target: P2-4G
[1] = molecular target: P1-5B-RBD (insect cell expression system)
[2] = molecular target: P2-3E-RBD (insect cell expression system)
[3] = molecular target: P1-1G-RBD (insect cell expression system)
[4] = molecular target: P2-3A-RBD (insect cell expression system)
[5] = molecular target: P2-2C-RBD (insect cell expression system)
[6] = molecular target: P2-3D-RBD (insect cell expression system)
[7] = molecular target: P2-2C-RBD (mammalian cell expression system)
[8] = molecular target: P1-5B-RBD (mammalian cell expression system)
[9] = molecular target: P2-3A-RBD (mammalian cell expression system)
[10] = molecular target: P2-3E-RBD (mammalian cell expression system)
[11] = molecular target: P2-5C-RBD (mammalian cell expression system)

B1: HEV-p239 (other)
chain: IALTLFNLADTLLGGLPTELISSAGGQLFYSRPVVSANGEPTVKLYTSVENAQQDKGIAIPHDIDLGESRVVIQDYDNQHEQDRPTPSPAPSRPFSVLRANDVLWLSLTAAEYDQSTYGSSTGPVYVSDSVTLVNVATGAQAVARSLDWTKVTLDGRPLSTIQQYSKTFFVLPLRGKLSFWEAGTTKAGYPYNYNTTASDQLLVENAAGHRVAISTYTTSLGAGPVSISAVAVLAPHSV
B1 was tested. Which Kd (P2-4G) did it give?
Its Kd is 3.4 nM.

And the Kd [1]?
The Kd was 1.13 nM.

What about the Kd [2] of the same binder?
The Kd was 1.41 nM.

What about the Kd [3] of the same binder?
Its Kd is 3.57 nM.

What about the Kd [4] of the same binder?
Its Kd is 0.655 nM.

And the Kd [5]?
Its Kd is 3.71 nM.

And the Kd [6]?
The Kd was 1.8 nM.

What about the Kd [7] of the same binder?
The Kd was 1.02 nM.

And the Kd [8]?
Its Kd is 0.131 nM.

And the Kd [9]?
The Kd was 0.0364 nM.

And the Kd [10]?
Its Kd is 1.24 nM.

What about the Kd [11] of the same binder?
The Kd was 0.874 nM.
